Test results from the nanobody polyreactivity screen of Harvey et al. (2022).

Experiment: yeast display, Sf9 membrane polyspecificity reagent, FACS + sequencing; frameworks hold sequencing errors
How it was run: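 Using colony PCR, genes from sorted yeast display clones were amplified, then sequenced on MiSeq at 2 × 250 and filtered by CDR length. The clones had been stained with 10% biotinylated, detergent-solubilized Sf9 membrane reagent for 1 hour at 4 °C and sorted by FACS into low and high (top ~1%) gates on anti-HA and streptavidin fluorescence. Polyreactivity labels come from the gate of origin.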

Row | Sequence | polyreactivity (PSR sort gate)
1 | QVQLVESGGGLDQAGGSLRLSCAASGFIFQRYTLGWYRQAPGKERELVAAITSGGRTYYADSVKGRFTISRDNAKNTVYLQMNSLKPEDTAVYYCNARGRASRHSGYDYWGQGTQVTVSS | high polyreactivity
2 | QVQLVESGGGLDQAGGSLRLSCAASGFIFRYYAMGWYRQAPGKERELVAAISRNGGSTYYADSVKGRFTISRDIAKNTVYLQMNSLKPEDTAVYYCAALTGRERYDYWGQGTQVTVSS | high polyreactivity
3 | QVQLVESGGGLDQAGGSLRLSCAASGFIFVRNAMGWYRQPPGKERELVAAITRSGGSTSYADSVKGRFTISRDNAKNTVYLQMNSLKPEDTAVYYCASERYPWQLYWSYYGYYYWGQGTQVTVSS | high polyreactivity
4 | QVQLVESGGGLDQAGGSLRLSCAASGFTFAVYAMGWYRQAPAKERELVAAISRSGTRTYYADSVKGRFTISRDNAKNTVYLQMNSLKREDNAVYYCAADNYRHGYEYWGLGTQVTVSS | high polyreactivity
5 | QVQLVESGGGLDQAGGSLRLSCAASGFTFPGNAMGWYRQSPGKEREFVAGISRSGDSTYYADSVKGRFTISRDNAKNTVYLQMNSLKPEDTAVYYCAARNPYRYFYYYEYWGQGTQVTVSS | low polyreactivity
6 | QVQLVESGGGLDQAGGSLRLSCAASGFTFRHNTMGGYRQAPGKEREMVAAISIGGRTYYADSVKGRFTISRDNAKNTVYLQMNSLKPEDTAVYYCAKLSRGQSPGYDYWGQGTQVTVSS | high polyreactivity
7 | QVQLVESGGGLDQAGGSLRLSCAASGFTFSYNAMGWYRQAPGKERELVASISWRGGGTYYADSVKGRFTISRDNAKNTVYLQMNSLKPEDTAVYYCNAGLTDYIGDPSEVDYWGQGTQVTVSS | low polyreactivity
8 | QVQLVESGGGLDQAGGSLRLSCAASGGILVIYAMGWYRQEPGKERELVAAINVSGGSTYYADSVKGRFTISRDNAKNTVYLQMNSLKPEDTAVYYCAALGPYLDYGVQYGYWGQGTQVTVSS | low polyreactivity
9 | QVQLVESGGGLDQAGGSLRLSCAASGGTFARYAMGWYRQAPGKERELVAAISARGGSTYYADSVKGRFTISRDNAKNTVYLQMNSLKPEDTAVYYCAAKKWYDRYGFDYWGQGTQVTVSS | high polyreactivity
10 | QVQLVESGGGLDQAGGSLRLSCAASGGTFGLYAMGWYRQAPGKERELVAAITWSDSSTYYADSVKGRFTISRDNAKNTVYFQMNSLKPEDTAVYYCNAVRSTSYGSYNYWGQGTQVTVSS | low polyreactivity
11 | QVQLVESGGGLDQAGGSLRLSCAASGGTFYYYAMGWYRQPPGKERELVAAITKNGGSTYYADSVKGRFTNSRDNAKNTVYLQMNRLKPEDTAVYSCAKATVAYGWWRYNYWGQGTQVTVSS | high polyreactivity
12 | QVQLVESGGGLDQAGGSLRLSCAASGITFGRNTMGWYRQAPGQERELVAAIDSGGNTYADSVKGRFTISRDNAKNTVYLQMNCLKPEDTAVYYCAVDGGEFSSYGYWGQGTQVTVSS | low polyreactivity
13 | QVQLVESGGGLDQAGGSLRLSCAASGITFPAYAMGLYRQAPGKEREWVAAITSGSSTNYADSVKGRFTISRDNAKNTVYLHLNSLKPEDTAVYYCAAQASYWGYRSGNRYGYWGQGTQVTVSS | high polyreactivity
14 | QVQLVESGGGLDQAGGSLRLSCAASGITFVRYAMGWYRQAPGKERELVAAISWSGGSTYYADSVKGRFTISRDNEKNTVYLQMNSLKPEDTAVYYCAAQHDVRYDYWGQGTQVTVSS | low polyreactivity
15 | QVQLVESGGGLDQAGGSLRLSCAASGLIFRRYAMGWYRQAPGKERELVAAISRSGGSTYYADSVKGRFTISRDNAKNTVYLQMNSLKPEDTAVYYCAARTRSDNSYHGGEYWGQGTQVTVSS | high polyreactivity
16 | QVQLVESGGGLDQAGGSLRLSCAASGRIFEYNAMGWYRQAPGKERELVAAINYNDVSTYYADSVKGRFTISRDNAKNTVFFQINSLKPEDTAVYYCNVYGDKWSAAYGEYVYWGQGTQVTVSS | low polyreactivity
17 | QVQLVESGGGLDQAGGSLRLSCAASGRIFFAYAMGWYRQAPGKEREFVAAISDNDGSTFYADSVKGRFTISRDNAKNPVYLQMNSLKPEDTAVYYCNADLGYVYDYWGQGTQVTVSS | low polyreactivity
18 | QVQLVESGGGLDQAGGSLRLSCAASGRIFRFYAMGWYRQATGKERELVAAISSRGGSTYYADSVKGRFTISRDNAKNTFYLQMNSLKPEDTAVYYCAKKTWRDYSYNYWGQGTQVTVSS | high polyreactivity
19 | QVQLVESGGGLDQAGGSLRLSCAASGRIFRRYAMGWYRQAPGKERELVAAISTRGGSTYYADSVKGRFTISRDHAKNTVYLQMNSLKPEDTAVYYCNAEARSRRYRYDYWGQGTQVTVSS | high polyreactivity
20 | QVQLVESGGGLDQAGGSLRLSCAASGRIFTYNAMGWYRPAPGKERELVAVISRRGGSTYYADSVKGRFTISRDNAKNTVYLQMNSLKPEDTAVYYCAAGGSVFYDNRYDYWGQGTQVTVSS | low polyreactivity
21 | QVQLVESGGGLDQAGGSLRLSCAASGRIFVGYARGWYRQAPVKERELVASITGRGTSTYYADSVKGRFTISRDNAKNTVYLQMNSLKPEDTAVYYCNALYRKYRNQWYISNYGYYYWGQGTQVTVSS | low polyreactivity

Row | Sequence | polyreactivity (PSR sort gate)
22 | QVQLVESGGGLDQAGGSLRLSCAASGRIFVIYAMGWYRQAPGKERELVAVINDDGSTNYADSVKGRFTISRDNAKNTVYLQMNSLKPEDTAVYYCAAESARYLTFEFDYWGQSTQVTVSS | low polyreactivity
23 | QVQLVESGGGLDQAGGSLRLSCAASGRIFVPNAMGWYRQAPGKERELVAAINWGGGSTYYADSVKGRFTISRDNAKNTVYLQMNSLKPEDTAVYYCAADHPYTIGVLPNQQFDYWGQGPQVTVSS | low polyreactivity
24 | QVQLVESGGGLDQAGGSLRLSCAASGRILRYYTMGWYRQAPGKERELVAAISRSGGGTYYADSVKGRFTISRDNAKNTVYLQMNSLKPEDTAVYYCAKQTHQKAYDYWGQGTQVTVSS | high polyreactivity
25 | QVQLVESGGGLDQAGGSLRLSCAASGRTFAHNAMGWYRQAPGKERELVAAITWSGGTTYYADSVKGRFTISRDNAKNTVYLQMNSLKPEDTAVYYCNTYSYLADPKYDYWGQGTQVTVSS | low polyreactivity
26 | QVQLVESGGGLDQAGGSLRLSCAASGRTFRYYAMGWYRQAPWKESDLVATITGSGGSTYYADSVKGRFTISRDNSKNTVYLQMYSLKPEDTAVYYCNARKVRYPYRWYDYWGQGTQVTVSS | high polyreactivity
27 | QVQLVESGGGLDQAGGSLRLSCAASGRTFWAPYTMGWYRQAPWKERELVAAISKSTTRTYYADSVKGRFTISRDNAKNTVYLQMTSLKPEDTAVYYCAVDSLYASRWVDYWGQGTQVTVSS | high polyreactivity
28 | QVQLVESGGGLDQAGGSLRLSCAASGRTFYRYAMGWYRQEPGKERELVATISRSGGSTYYADSVKGRFTISRDNAKNTVYLQMNSLKPEDTAVYYCNAEGYPWGFYTYDYWGQGTQVTVSS | low polyreactivity
29 | QVQLVESGGGLDQAGGSLRLSCAASGSIFANNAMGWYRQAPGKERELVATIRSGGTTNYADSVKGRFTISRDNAKNTVYLQMNSLKPEDTAVYYCAAETVSYYSKYDYWGQGTQVTVSS | low polyreactivity
30 | QVQLVESGGGLDQAGGSLRLSCAASGSIFAPNAMGWYRQAPGKERELVAAITSSGGRTYYADSVKGRFTISRDNAKNTVYLQMNSLKPEDTAVYYCNACYYVRRDYDYWGQGTQVTVSS | low polyreactivity
31 | QVQLVESGGGLDQAGGSLRLSCAASGSIFEKYAMGWYRQAPGKERELVAGISRSGGSTYYADSVKGRFTISRDNAKNTVYLQMNSLKLEDTAFYFCAARYTRYGSFYGFGYWGQGTQVTVSS | high polyreactivity
32 | QVQLVESGGGLDQAGGSLRLSCAASGSIFFYYAMVWYRQAPGKERELVADITSGGTTYYADSVKGRFTISRDNAKNTVYLQLNSLKPEDTAVYYCNACLYPGQRPDYTNYSSDYLGQGTQVTVSS | low polyreactivity
33 | QVQLVESGGGLDQAGGSLRLSCAASGSIFGVNDMVWNRQAPGKERELVAAISGGGSTYYADSVKGRFTISRDNAKNTVYLQMNSLKPEDTAVYYCARRRTKSYTRKYDYWGQGTQVTVSS | low polyreactivity
34 | QVQLVESGGGLDQAGGSLRLSCAASGSIFRWYAMGWYRQAPGKEREFVAAITSSGGSTYYADSVKGRFTISRDTAKNTVYLQINSVKPEDTAVYYCNRRYQPYSYDYWGEGTQVTVSS | high polyreactivity
35 | QVQLVESGGGLDQAGGSLRLSCAASGSIFVHYAMGWYRQAPGKERELVAGITFRGGRTYYADSVKGRFTISRDNAKNTVYLQMNSLKPEDTAVYYCAALYSVRGGYPSSHRIRMEYCGQGTQVTVSS | high polyreactivity
36 | QVQLVESGGGLDQAGGSLRLSCAASGSIFYRNAMGWYRKAPGKERELVAAISWSGSRTYYADSVKVRFTISRDNAKNTVYLQMISLKPEDTAVYYCNRQYNQWIHYYYRMDYWGQGNQVTVSS | high polyreactivity
37 | QVQLVESGGGLDQAGGSLRLSCAASGSTFDSNTMGRSRQAPGKERELDAAITVSGGSTHYADSVKGRFTISRDNAKNTVYLQMNSLKPEDTAVYYCNRRSYGYGAFSGYDYWGQGTQVTVSS | low polyreactivity
38 | QVQLVESGGGLDQAGGSLRLSCAASGSTFDYYARGWYRQAPGKERELVAAISSSGGSTYYADSVKGRFTISRDNANYTVYLQRNSLKPEDTAVYYCNKYGGTLRSDYWGQGTQVTVSS | high polyreactivity
39 | QVQLVESGGGLDQAGGSLRLSCAASGSTFKHNAMGWYRQAPAKERVLVAGISWGGSSTYYADSVKGRFTISRDNAKNTVYLQMNSLKPDDTAVYYCAKGGYRRYGYDYWGQGTQVTVSS | low polyreactivity
40 | QVQLVESGGGLDQAGGSLRLSCAASGSTFPYYAMGWYRQAPGKERELVARISYRGGRTYYADSVKGRFTISRDNAKNTVYLQMNSLKAEDTAVYYCAADRWVYYHSTRYDYWGQGTQVTVSS | high polyreactivity
41 | QVQLVESGGGLDQAGGSLRLSCAASGSTFRNNAMGWYRQAPGKERELVAAISRGGGSTYYADSVKGRFTISRDNAKNNVYLQMTSLKQDDTAVYDCARRPTGIYDYWGQGTQVTVSS | high polyreactivity
